US20250076311A1 (Chugai, published 2025)

T1: cynomolgus monkey FcγRIIa2 extracellular domain with C-terminal His-tag (cynomolgus monkey)
T1 construct: also called cyno FcgRIIa2; cynoFcγRIIa2; not shown: His-tag added to C-terminus
T1 chain: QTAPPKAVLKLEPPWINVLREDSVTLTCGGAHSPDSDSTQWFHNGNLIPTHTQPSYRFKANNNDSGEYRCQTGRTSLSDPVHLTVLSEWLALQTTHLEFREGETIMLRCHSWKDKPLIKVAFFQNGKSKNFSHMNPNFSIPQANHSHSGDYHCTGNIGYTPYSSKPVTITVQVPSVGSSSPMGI

T2: cynomolgus monkey FcγRIIa3 extracellular domain with C-terminal His-tag (cynomolgus monkey)
T2 construct: also called cyno FcgRIIa3; cynoFcγRIIa3; not shown: His-tag added to C-terminus
T2 chain: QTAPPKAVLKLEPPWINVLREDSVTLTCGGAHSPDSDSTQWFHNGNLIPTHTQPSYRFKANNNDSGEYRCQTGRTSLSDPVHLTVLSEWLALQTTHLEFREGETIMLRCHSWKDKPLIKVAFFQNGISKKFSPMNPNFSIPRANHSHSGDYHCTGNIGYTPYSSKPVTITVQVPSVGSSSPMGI

T3: human FcγRIIaH extracellular domain with C-terminal His-tag (human, UniProt P12318 34-217)
T3 construct: also called human FcgRIIaH; FcγRIIa (type H); not shown: His-tag added to C-terminus
T3 sequence: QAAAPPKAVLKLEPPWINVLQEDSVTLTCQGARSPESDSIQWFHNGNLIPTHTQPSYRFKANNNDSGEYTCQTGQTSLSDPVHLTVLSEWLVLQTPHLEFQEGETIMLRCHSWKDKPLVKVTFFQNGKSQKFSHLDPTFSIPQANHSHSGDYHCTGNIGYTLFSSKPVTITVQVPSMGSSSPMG

T4: human FcγRIIb extracellular domain with C-terminal His-tag (human, UniProt P31994 43-217)
T4 construct: also called human FcgRIIb; not shown: His-tag added to C-terminus
T4 sequence: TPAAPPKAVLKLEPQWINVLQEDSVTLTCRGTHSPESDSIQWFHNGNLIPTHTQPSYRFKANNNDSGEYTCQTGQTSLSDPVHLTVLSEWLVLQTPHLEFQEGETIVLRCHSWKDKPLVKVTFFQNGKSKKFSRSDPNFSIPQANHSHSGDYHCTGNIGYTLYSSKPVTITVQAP

T5: human FcγRIIaR extracellular domain with C-terminal His-tag (human, UniProt P12318 34-217)
T5 construct: also called human FcgRIIaR; FcγRIIa (type R); not shown: His-tag added to C-terminus
T5 chain: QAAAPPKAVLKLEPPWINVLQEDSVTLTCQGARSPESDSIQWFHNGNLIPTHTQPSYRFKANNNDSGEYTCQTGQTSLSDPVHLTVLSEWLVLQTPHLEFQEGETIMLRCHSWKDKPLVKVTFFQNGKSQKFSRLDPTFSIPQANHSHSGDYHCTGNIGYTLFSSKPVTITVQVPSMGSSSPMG

B1: M103205H795-MY172/M103202L889-SK1 (antibody, human IgG1, kappa, name in EU numbering)
heavy: QVTLKESGPVLVKPTETLTLTCTVSGIDLSHDDISWVRQAPGKGLEWVGIISYAGSTYYASWAKGRLTISKDTSKNQVVLTMTNMDPVDTATYYCARGVPAYSHGGDLWGQGTLVTVSSASTKGPSVFPLAPSSKSTSGGTAALGCLVKDYFPEPVTVSWNSGALTSGVHTFPAVLQSSGLYSLSSVVTVPSSSLGTQTYICNVNHKPSNTKVDKKVEPKSCDKTHTCPPCPAPELLNGPSVFLFPPKPKDTLMISRTPEVTCVVVDVSEEDPEVKFNWYVDGVEVHNAKTKPREEQYNSTYRVVSVLTVLHQDWLNGKEYKCKVSNKALPAPIEKTISKAKGQPREPQVYTLPPSREEMTKNQVSLTCLVKGFYPSDIAVEWESNGQPENNYKTTPGVLDSDGSFFLYSKLTVDKSRWQQGNVFSCSVMHEALHNHYTQKSLSLSP
light: DIVMTQSPATLSLSPGERATLSCTSSQSVYHANWLSWFQQKPGQPPKLLIYWASTLAYGVPSRFSGSGSGTDFTLTISSLQPEDAATYYCAGGYGGGRYAFGQGTKVEIKRTVAAPSVFIFPPSDEQLKSGTASVVCLLNNFYPREAKVQWKVDNALQSGNSQESVTEQDSKDSTYSLSSTLTLSKADYEKHKVYACEVTHQGLSSPVTKSFNRGEC
notes: EU numbering
B2: M103205H795-MY210/M103202L889-SK1 (antibody, human IgG1, kappa, name in EU numbering)
heavy: QVTLKESGPVLVKPTETLTLTCTVSGIDLSHDDISWVRQAPGKGLEWVGIISYAGSTYYASWAKGRLTISKDTSKNQVVLTMTNMDPVDTATYYCARGVPAYSHGGDLWGQGTLVTVSSASTKGPSVFPLAPSSKSTSGGTAALGCLVKDYFPEPVTVSWNSGALTSGVHTFPAVLQSSGLYSLSSVVTVPSSSLGTQTYICNVNHKPSNTKVDKKVEPKSCDKTHTCPPCPAPELLNGPSVFLFPPKPKDTLMISRTPEVTCVVVDVSDEDPEVKFNWYVDGVEVHNAKTKPREEQYNSTYRVVSVLTVLHQDWLNGKEYKCKVSNTALPKPIEKTISKAKGQPREPQVYTLPPSREEMTKNQVSLTCLVKGFYPSDIAVEWESNGQPENNYKTTPPVLDSDGSFFLYSKLTVDKSRWQQGNVFSCSVMHEALHNHYTQKSLSLSP
light: DIVMTQSPATLSLSPGERATLSCTSSQSVYHANWLSWFQQKPGQPPKLLIYWASTLAYGVPSRFSGSGSGTDFTLTISSLQPEDAATYYCAGGYGGGRYAFGQGTKVEIKRTVAAPSVFIFPPSDEQLKSGTASVVCLLNNFYPREAKVQWKVDNALQSGNSQESVTEQDSKDSTYSLSSTLTLSKADYEKHKVYACEVTHQGLSSPVTKSFNRGEC
notes: substitutions in EU numbering, introduced into M103205H795-SG1
B3: M103205H795-MY178/M103202L889-SK1 (antibody, human IgG1, kappa, name in EU numbering)
heavy: QVTLKESGPVLVKPTETLTLTCTVSGIDLSHDDISWVRQAPGKGLEWVGIISYAGSTYYASWAKGRLTISKDTSKNQVVLTMTNMDPVDTATYYCARGVPAYSHGGDLWGQGTLVTVSSASTKGPSVFPLAPSSKSTSGGTAALGCLVKDYFPEPVTVSWNSGALTSGVHTFPAVLQSSGLYSLSSVVTVPSSSLGTQTYICNVNHKPSNTKVDKKVEPKSCDKTHTCPPCPAPELLNGPSVFLFPPKPKDTLMISRTPEVTCVVVDVSEEDPEVKFNWYVDGVEVHNAKTKPREEQYNSTYRVVSVLTVLHQDWLNGKEYKCKVSNKALPAPIEKTISKAKGQPREPQVYTLPPSREEMTKNQVSLTCLVKGFYPSDIAVEWESNGQPENNYKTTPQVLDSDGSFFLYSKLTVDKSRWQQGNVFSCSVMHEALHNHYTQKSLSLSP
light: DIVMTQSPATLSLSPGERATLSCTSSQSVYHANWLSWFQQKPGQPPKLLIYWASTLAYGVPSRFSGSGSGTDFTLTISSLQPEDAATYYCAGGYGGGRYAFGQGTKVEIKRTVAAPSVFIFPPSDEQLKSGTASVVCLLNNFYPREAKVQWKVDNALQSGNSQESVTEQDSKDSTYSLSSTLTLSKADYEKHKVYACEVTHQGLSSPVTKSFNRGEC
notes: EU numbering
B4: M103205H795-MY289/M103202L889-SK1 (antibody, human IgG1, kappa, name in EU numbering)
heavy: QVTLKESGPVLVKPTETLTLTCTVSGIDLSHDDISWVRQAPGKGLEWVGIISYAGSTYYASWAKGRLTISKDTSKNQVVLTMTNMDPVDTATYYCARGVPAYSHGGDLWGQGTLVTVSSASTKGPSVFPLAPSSKSTSGGTAALGCLVKDYFPEPVTVSWNSGALTSGVHTFPAVLQSSGLYSLSSVVTVPSSSLGTQTYICNVNHKPSNTKVDKKVEPKSCDKTHTCPPCPAPELLNGPSVFLFPPKPKDTLMISRTPEVTCVVVDVSHEDPEVKFNWYVDGVEVHNAKTKPREEQYNSTYRVVSVLTVLHQDWLNGKEYKCKVSNKALPKPIEKTISKAKGQPREPQVYTLPPSREEMTKNQVSLTCLVKGFYPSDIAVEWESNGQPENNYKTTPMVLDSDGSFFLYSKLTVDKSRWQQGNVFSCSVMHEALHNHYTQKSLSLSP
light: DIVMTQSPATLSLSPGERATLSCTSSQSVYHANWLSWFQQKPGQPPKLLIYWASTLAYGVPSRFSGSGSGTDFTLTISSLQPEDAATYYCAGGYGGGRYAFGQGTKVEIKRTVAAPSVFIFPPSDEQLKSGTASVVCLLNNFYPREAKVQWKVDNALQSGNSQESVTEQDSKDSTYSLSSTLTLSKADYEKHKVYACEVTHQGLSSPVTKSFNRGEC
notes: as for B2
B5: M103205H795-MY177/M103202L889-SK1 (antibody, human IgG1, kappa, name in EU numbering)
heavy: QVTLKESGPVLVKPTETLTLTCTVSGIDLSHDDISWVRQAPGKGLEWVGIISYAGSTYYASWAKGRLTISKDTSKNQVVLTMTNMDPVDTATYYCARGVPAYSHGGDLWGQGTLVTVSSASTKGPSVFPLAPSSKSTSGGTAALGCLVKDYFPEPVTVSWNSGALTSGVHTFPAVLQSSGLYSLSSVVTVPSSSLGTQTYICNVNHKPSNTKVDKKVEPKSCDKTHTCPPCPAPELLNGPSVFLFPPKPKDTLMISRTPEVTCVVVDVSEEDPEVKFNWYVDGVEVHNAKTKPREEQYNSTYRVVSVLTVLHQDWLNGKEYKCKVSNKALPAPIEKTISKAKGQPREPQVYTLPPSREEMTKNQVSLTCLVKGFYPSDIAVEWESNGQPENNYKTTPNVLDSDGSFFLYSKLTVDKSRWQQGNVFSCSVMHEALHNHYTQKSLSLSP
light: DIVMTQSPATLSLSPGERATLSCTSSQSVYHANWLSWFQQKPGQPPKLLIYWASTLAYGVPSRFSGSGSGTDFTLTISSLQPEDAATYYCAGGYGGGRYAFGQGTKVEIKRTVAAPSVFIFPPSDEQLKSGTASVVCLLNNFYPREAKVQWKVDNALQSGNSQESVTEQDSKDSTYSLSSTLTLSKADYEKHKVYACEVTHQGLSSPVTKSFNRGEC
notes: EU numbering
B6: M103205H795-MY179/M103202L889-SK1 (antibody, human IgG1, kappa, name in EU numbering)
heavy: QVTLKESGPVLVKPTETLTLTCTVSGIDLSHDDISWVRQAPGKGLEWVGIISYAGSTYYASWAKGRLTISKDTSKNQVVLTMTNMDPVDTATYYCARGVPAYSHGGDLWGQGTLVTVSSASTKGPSVFPLAPSSKSTSGGTAALGCLVKDYFPEPVTVSWNSGALTSGVHTFPAVLQSSGLYSLSSVVTVPSSSLGTQTYICNVNHKPSNTKVDKKVEPKSCDKTHTCPPCPAPELLNGPSVFLFPPKPKDTLMISRTPEVTCVVVDVSEEDPEVKFNWYVDGVEVHNAKTKPREEQYNSTYRVVSVLTVLHQDWLNGKEYKCKVSNKALPAPIEKTISKAKGQPREPQVYTLPPSREEMTKNQVSLTCLVKGFYPSDIAVEWESNGQPENNYKTTPRVLDSDGSFFLYSKLTVDKSRWQQGNVFSCSVMHEALHNHYTQKSLSLSP
light: DIVMTQSPATLSLSPGERATLSCTSSQSVYHANWLSWFQQKPGQPPKLLIYWASTLAYGVPSRFSGSGSGTDFTLTISSLQPEDAATYYCAGGYGGGRYAFGQGTKVEIKRTVAAPSVFIFPPSDEQLKSGTASVVCLLNNFYPREAKVQWKVDNALQSGNSQESVTEQDSKDSTYSLSSTLTLSKADYEKHKVYACEVTHQGLSSPVTKSFNRGEC
notes: EU numbering

Columns and labels:
Assay in all cases: SPR Biacore, antibody captured, FcgR analyte
[1] = molecular target: T1, cynomolgus monkey FcγRIIa2 …
[2] = molecular target: T2, cynomolgus monkey FcγRIIa3 …
[3] = molecular target: T6, cynomolgus monkey FcγRIIIaS extracellular domain with C-terminal His-tag (cynomolgus monkey, UniProt A3RFZ7 21-206 (rhesus entry))
T6 construct: also called cyno FcgRIIIaS; cynoFcγRIIIaS; not shown: His-tag added to C-terminus

[4] = molecular target: T3, human FcγRIIaH extracellular domain …
[5] = molecular target: T7, human FcγRIIIaV extracellular domain with C-terminal His-tag (human, UniProt P08637 17-208)
T7 construct: also called human FcgRIIIaV; not shown: His-tag added to C-terminus
T7 sequence (P08637 17-208 F176V): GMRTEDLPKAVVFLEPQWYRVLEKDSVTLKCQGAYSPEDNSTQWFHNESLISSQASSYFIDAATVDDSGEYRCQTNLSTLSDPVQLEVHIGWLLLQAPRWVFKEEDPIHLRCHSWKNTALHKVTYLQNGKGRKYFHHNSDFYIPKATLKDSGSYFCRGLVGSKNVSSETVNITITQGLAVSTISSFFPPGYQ

[6] = molecular target: T4, human FcγRIIb extracellular domain with …
[7] = molecular target: T5, human FcγRIIaR extracellular domain …

KD fold (SG1 = 1) [1] [fold] | Kd [1] [nM] | Kd [2] [nM] | KD fold (SG1 = 1) [3] [fold] | Kd [3] [nM] | Kd [4] [nM] | KD fold (SG1 = 1) [4] [fold] | KD fold (SG1 = 1) [5] [fold] | Kd [6] [nM] | KD fold (SG1 = 1) [2] [fold] | KD fold (SG1 = 1) [7] [fold] | KD fold (SG1 = 1) [6] [fold] | Kd [7] [nM] | Binder
1.8 | 2800 | 1100 | 0.17 | 3500 | 1700 | – | – | – | – | – | – | – | B1
6.1 | – | – | 0.15 | – | – | 0.8 | 0.03 | – | – | – | – | – | B2
– | – | – | 0.17 | 3000 | – | 0.6 | 0.15 | 1300 | – | – | – | – | B3
– | – | – | 0.07 | – | – | 0.8 | – | – | 1 | 0.3 | 1.8 | – | B4
– | – | – | 0.12 | 2900 | 1000 | – | – | 1100 | – | 0.1 | – | 2000 | B5
2.8 | – | – | 0.13 | 2700 | 1100 | – | – | 1200 | – | – | – | – | B6
